Assay results from publication PMC9841404, “Werner syndrome protein works as a dimer for unwinding and replication fork regression” (Nucleic Acids Research, 2022).

Tests used:
[1] = biological target: the molecule itself; assay: single-molecule GFP photobleaching step counting (TIRF microscopy); real-time binding of GFP-tagged WRN to model replication fork immobilised via biotin-streptavidin; all bound molecules counted; no ATP; 10 mM Tris-HCl pH 8.0, 50 mM NaCl; room temperature; oligomer counted on DNA
[2] = biological target: the molecule itself; assay: single-molecule GFP photobleaching step counting (TIRF microscopy); immobilised forked DNA incubated with 24 nM GFP-tagged WRN and 1 nM RPA, unbound washed out; steps counted in the absence of ATP; only molecules with unwinding activity (Cy3-Cy5 FRET after 1 mM ATP-Mg2+) counted; room temperature

B1: GFP-tagged Werner syndrome protein (f:GFP-WRN) (enzyme)
chain: not shown
notes: Werner syndrome protein (WRN), human; cDNA encoding full-length WRN generated by RT-PCR from total RNA of HEK293T cells, subcloned into pFASTBAC1; Number of copies depends on the condition: dimer or tetramer on DNA (see measurements); also called GFP-tagged WRN; not shown: FLAG, N-terminal, kept; GFP, N-terminal, kept
- stoichiometry N [1]: 4
- stoichiometry N [2]: 2
